Test results published in patent US20150283227A1, “SYNTHETIC ENV PROTEINS” (priority 2012, published 2015).
pKd: −log10 of the molar value. Read-outs that look alike come from different tables or passages of the source.

Columns and labels:
BnAb PG9 = format: binding, human; conditions: Example 5, peptides 200 μg/mL, glycans 25 μg/mL over captured PG9
Description: (§1) Each of the mAbs was captured on a human Fc specific IgG directly immobilized on a BIAcore CM5 sensor chip. Each of the V1/V2 peptides (3 min at 50 uL/min) was injected over the mAb captured surface and SPR binding was monitored on a BIAcore 3000 instrument. Non-specific binding of peptides was subtracted following measurement of signal on a surface with a control ant-RSV mab Synagis.
V1V2 glycopeptide binding Kd and rate constant measurements were carried out on a BIAcore 3000 instrument using an anti-human Ig Fc capture assay as described earlier (Alam, S. M.; McAdams, M.; Boren, D.; Rak, M.; Scearce, R. M.; Gao, F.; Camacho, Z. T.; Gewirth, D.; Kelsoe, G.; Chen, P.; Haynes, B. F. J. Immunol. 2007, 178, 4424-4435.). Anti-human IgG Fc antibody (Sigma Chemicals) was immobilized on a CM5 sensor chip to about 10000 response units (RU), and each antibody was captured to about 300 RU. Anti-RSV Synagis mAb was captured on the same sensor chip as a control surface. Non-specific binding and drift in signal was double referenced by subtracting binding to the control surface and blank buffer flow for each of the peptide binding interactions. All curve-fitting analyses were performed using global fit of multiple titrations to the 1:1 Langmuir model. All data analysis was performed using the BIAevaluation 4.1 analysis software (GE Healthcare).
V1V2 glycopeptide binding Kd and rate constant measurements were carried out on BIAcore 3000 instruments as described earlier (Alam et al, Immunol. 178(7):4424-4435 (2007), Alam et al, J. Virol. 82(1):115-125 (2008)). Anti-human IgG Fc antibody (Sigma Chemicals) was immobilized on either a CM3 or CM5 (CM3 for kinetics and Kd determination) sensor chip (to minimize non-specific binding of peptides to chip matrix) to about 5000 Resonance Unit (RU) and each antibody was captured to about 100-200 RU on individual flow cells, in addition to one flow cell with the control Synagis mAb on the same sensor chip. Non-specific binding of V1V2 glycopeptide was double-referenced by substracting the control surface and blank buffer flow for each mAb-V1V2 glycopeptide binding interaction. […] SPR curve fitting analysis was performed using global fit of multiple titrations to the 1:1 Langmuir model. All data analysis was performed using the BIAevaluation 4.1 analysis software (GE Healthcare).

BnAb CH01 = experiment: SPR binding of V1V2 peptides/glycopeptides to captured mAb CH01; design: species or system human; conditions: glycans in the absence of the V2 peptide backbone
Description: as §1
Anti-human IgG Fc antibody (Sigma Chemicals) was immobilized on either a CM3 or CM5 (CM3 for kinetics and Kd determination) sensor chip (to minimize non-specific binding of peptides to chip matrix) to about 5000 Resonance Unit (RU) and each antibody was captured to about 100-200 RU on individual flow cells, in addition to one flow cell with the control Synagis mAb on the same sensor chip. Non-specific binding of V1V2 glycopeptide was double-referenced by substracting the control surface and blank buffer flow for each mAb-V1V2 glycopeptide binding interaction. […] SPR curve fitting analysis was performed using global fit of multiple titrations to the 1:1 Langmuir model. All data analysis was performed using the BIAevaluation 4.1 analysis software (GE Healthcare).

[1] = target: Man5GlcNAc2 V1V2 glycopeptide, DMSO-oxidized disulfide-linked dimer (HIV-1 strain AE.CM244 (A244)); experiment: SPR kinetics, mAb captured on anti-IgG, DMSO-oxidized dimer injected; 1:1 Langmuir
[2] = target: Man3GlcNAc2 V1V2 glycopeptide, DMSO-oxidized disulfide-linked dimer (HIV-1 strain AE.CM244 (A244)); experiment: as above

Molecule	SPR binding to PG9 (BnAb PG9)	SPR binding to CH01 (BnAb CH01)	SPR binding to PG9 (BnAb PG9; listed as Man3GlcNAc2 glycan)	SPR binding to PG9 (BnAb PG9; listed as Man3GlcNAc2 oligosaccharide)	pKd [1]	koff [1]	kon [1]	pKd [2]	koff [2]	kon [2]
CC(=O)N[C@H]1[C@H](O[C@H]2[C@H](O)[C@@H](NC(C)=O)C(O)O[C@@H]2CO)O[C@H](CO)[C@@H](O[C@@H]2O[C@H](CO[C@H]3O[C@H](CO[C@H]4O[C@H](CO)[C@@H](O)[C@H](O)[C@@H]4O)[C@@H](O)[C@H](O[C@H]4O[C@H](CO)[C@@H](O)[C@H](O)[C@@H]4O)[C@@H]3O)[C@@H](O)[C@H](O[C@H]3O[C@H](CO)[C@@H](O)[C@H](O)[C@@H]3O)[C@@H]2O)[C@@H]1O (some centres unmarked) [Man5GlcNAc2 glycan alone, reference compound]	not detected									
CC(=O)NC1C(O)OC(CO)[C@@H](O[C@@H]2OC(CO)[C@@H](O[C@@H]3OC(CO[C@H]4OC(CO)[C@@H](O)[C@H](O)C4O)[C@@H](O)[C@H](O[C@H]4O[C@@H](CO)[C@@H](O)C(O)C4O)C3O)[C@H](O)C2NC(C)=O)[C@@H]1O (stereo partly drawn) [Man3GlcNAc2 glycan alone, [α-D-mannopyranosyl-(1→3)]-[α-D-mannopyranosyl-(1→6)]-β-D-mannopyranosyl-(1→4)-2-deoxy-2-N-acetyl-β-D-glucopyranosyl-(1→4)-2-deoxy-2-N-acetyl-D-glucopyranoside, reference compound]	minimal to no binding	not detected	not detected	not detected						
CH01 (antibody)					7.34	0.000302 s⁻¹	6640 M⁻¹ s⁻¹	7.49	0.00032 s⁻¹	9970 M⁻¹ s⁻¹
